This is an account of results in article PMC3905668.

Test [1] deals with N-terminally KGN-tagged Vpr (KGN-Vpr) (UniProt P12520). Put plainly: bimolecular fluorescence complementation (BiFC), flow cytometry on cells. As to conditions: 293T cells, 48 hours post-transfection; parent: est. 100; read off a plot. On the technique in general: Flow cytometry measures light scatter and fluorescence of single cells or particles in a stream.
The target in test [2] is C-terminally KGC-tagged Gag (Gag-KGC). Described as above. The following applies: 293T cells, 48 hours post-transfection; parent: est. 100; read off a plot.

In the case of “C-terminally KGC-tagged Gag (Gag-KGC) S487A”, the percent of parent in test [1] was determined as 35%.

With “N-terminally KGN-tagged Vpr (KGN-Vpr) (from UniProt P12520) Q44E”, the percent of parent in test [2] is 30%.
